In data set [1] the target is HA-p75-CTF (truncated p75NTR construct that mimics the endogenously generated C-terminal fragment), wild type (UniProt P07174). The data set is described as follows: non-reducing SDS-PAGE and Western blot; total membranes (and lysates) of HeLa cells transfected with p75-CTF constructs, 16 h with or without 10 uM compound E; sample buffer with 1% beta-mercaptoethanol keeps the C257 disulfide dimers; anti-p75NTR blot; shows only SDS-resistant disulfide dimers. (Immunoblotting shows a protein as a band on a membrane.)

The target in data set [2] is endogenous p75-CTF of mouse dorsal root ganglia neurons (mouse (endogenous in dorsal root ganglia)). The data set is described as follows: non-reducing SDS-PAGE and Western blot; lysate of dorsal root ganglia from P2 mice, 24 h at 37 C with or without compound E (10 uM).
Data set [3] concerns the molecule itself. The data set is described as follows: SDS-PAGE and Western blot with or without DTT; purified C101-p75-3xFLAG substrates, with or without DTT (20 mM), anti-FLAG blot.

For “HA-p75-CTF (truncated p75NTR construct that mimics the endogenously generated C-terminal fragment), wild type (from UniProt P07174 245-425) (domain or fragment)”, the stoichiometry N – broadly, a count of units in the complex or per binding partner – in data set [1] worked out at 2. The molecule “endogenous p75-CTF of mouse dorsal root ganglia neurons (domain or fragment)” came in with a stoichiometry N in data set [2] of 2.

B1: C101-p75-wt-3xFlag (domain or fragment, rat)
chain: MVTTVMGSSQPVVTRGTTDNLIPVYCSILAAVVVGLVAYIAFKRWNSCKQNKQGANSRPVNQTPPPEGEKLHSDSGISVDSQSLHDQQTHTQTASGQALKG
notes: rat p75NTR, transmembrane domain and juxtamembrane region; Forms DTT-sensitive disulfide dimers; also called p75-C101-wt; C101-wt; source: COS1, transiently transfected, purified (anti-FLAG M2 agarose); not shown: 3xFLAG, C-terminal, kept
Take B1: the “stoichiometry N” value in data set [3] worked out at 2.

Source of the values: publication PMC7898468, “TrkA-mediated endocytosis of p75-CTF prevents cholinergic neuron death upon γ-secretase inhibition” (Life Science Alliance, 2021).
